Legend:
Type in all cases: in vivo, human
[1] = RBC MTXPG3 levels in RA patients measured by liquid chromatography
Experimental: (§1) Adult RA patients receiving weekly MTX with infliximab for more than three months were enrolled in a cross sectional study. Blood was collected at trough before the infusion of infliximab. Red blood cell (RBC) MTXPGs were measured using liquid chromatography while circulating levels of infliximab were measured using a cell based assay. ATIs were measured using enzyme immunoassays. Statistical analysis consisted of regression analyses and Wilcoxon tests.
(§2) The study was cross sectional study in adult RA patients at three study sites (Brigham and Women's, Boston, Mass.; The Center for Rheumatology, Albany, N.Y.; and Altoona Center for Clinical Research, Altoona Pa.). All RA patients (according to the 2010 ACR criteria for RA)^8 enrolled had received a stable dose of MTX (for at least 4 months) in combination with infliximab for at least 3 months. Clinical parameters and demographic data were collected at the time of a single study visit. The study was approved by an independent ethic committee and informed consent was collected from all patients. Blood was drawn in EDTA containing tube and one SST tube at the time of the study visit. The blood was drawn just prior to the infliximab infusion (trough) and shipped overnight using refrigerated transportation kits. Disease activity was estimated using the clinical disease activity index (CDAI). […] RBC MTXPG3 were measured using a liquid chromatography developed and validated in our laboratory^9. Quantification limit was 5 nmol/L RBCs. Circulating levels of infliximab in serum were measured by Biomonitor (Copenhagen, DK) using a cell based assay consisting of erythroleukemic K562 cells transfected with a NFKB regulated firefly luciferase reporter-gene construct^10. Antibodies to infliximab (ATIs) were measured using a proprietary enzyme immunoassay technique (Biomonitor, Copenhagen, Denmark). The cutoff for positive ATI was 0.9 U/L. Anti-citrullinated peptide auto-antibodies levels (Anti-MCV) were measured using ELISA (Orgentec Diagnostika, Mainz, Germany). […]

[2] = Circulating trough infliximab levels in serum of RA patients on MTX plus infliximab (K562 NFKB-luciferase cell based assay)
Experimental: as §1, §2

[3] = Antibodies to infliximab (ATIs) in RA patients by enzyme immunoassay, cutoff 0.9 U/L
Experimental: as §1
The study was cross sectional study in adult RA patients at three study sites (Brigham and Women's, Boston, Mass.; The Center for Rheumatology, Albany, N.Y.; and Altoona Center for Clinical Research, Altoona Pa.). All RA patients (according to the 2010 ACR criteria for RA)^8 enrolled had received a stable dose of MTX (for at least 4 months) in combination with infliximab for at least 3 months. Clinical parameters and demographic data were collected at the time of a single study visit. The study was approved by an independent ethic committee and informed consent was collected from all patients. Blood was drawn in EDTA containing tube and one SST tube at the time of the study visit. The blood was drawn just prior to the infliximab infusion (trough) and shipped overnight using refrigerated transportation kits. Disease activity was estimated using the clinical disease activity index (CDAI). Upon receipt of blood specimen, erythrocytes and serum were isolated and stored frozen at −80° C. RBC MTXPG3 were measured using a liquid chromatography developed and validated in our laboratory^9. Quantification limit was 5 nmol/L RBCs. Circulating levels of infliximab in serum were measured by Biomonitor (Copenhagen, DK) using a cell based assay consisting of erythroleukemic K562 cells transfected with a NFKB regulated firefly luciferase reporter-gene construct^10. Antibodies to infliximab (ATIs) were measured using a proprietary enzyme immunoassay technique (Biomonitor, Copenhagen, Denmark). The cutoff for positive ATI was 0.9 U/L. Anti-citrullinated peptide auto-antibodies levels (Anti-MCV) were measured using ELISA (Orgentec Diagnostika, Mainz, Germany). Statistical analysis consists of multivariate logistic/linear regression and Wilcoxon tests as appropriate.

median RBC MTXPG3, patients without ATI ([1]; ATI negative patients)	median RBC MTXPG3, patients having ATIs ([1]; ATI positive patients)	median RBC MTXPG3 levels ([1]; all 61 RA patients on weekly MTX, red blood cells)	Compound	median infliximab levels, patients without ATI ([2]; ATI negative patients, trough)	median infliximab levels, patients with ATIs ([2]; ATI positive patients, trough)	median trough infliximab levels ([2]; all 61 RA patients, MTX with infliximab, serum at trough before infusion)	patients with ATIs detected ([3]; 11 of 61 patients, ATI>0.9 U/L)	patients testing positive for ATI ([3]; 12 patients with RBC MTXPG3 above 50 nmol/L)	fold lower likelihood of having ATI (odds ratio) ([3]; RBC MTXPG3 levels above 25 nmol/L, logistic regression, CI95%: 1.1-20.8)	number of patients with ATI ([3]; of 4 patients with MTXPG3<5 nmol/L)	patients presenting with ATI ([3]; patients with RBC MTXPG3 below 5 nmol/L (3 out of 4))
30 nmol/L	22 nmol/L	28 nmol/L	CN(Cc1cnc2nc(N)nc(N)c2n1)c1ccc(C(=O)N[C@@H](CCC(=O)N[C@@H](CCC(=O)N[C@@H](CCC(=O)O)C(=O)O)C(=O)O)C(=O)O)cc1 [MTXPG3]								
			infliximab	5.0 µg/mL	< 0.5 µg/mL	3.3 µg/mL	18%	None and none	4.7 fold	3	75%

From patent US20130216530A1, “Methods for optimizing biological response modifier therapy using therapeutic drug monitoring of immunosuppressants” (Exagen Diagnostics, Inc., priority 2012, published 2013)
